In US9206457B2, “Utilization of pharmacological chaperones to improve manufacturing and purification of biologics” (Amicus Therapeutics, Inc., priority 2009, dated 2015):

Tests used:
[1] = target: T1, recombinant human GCase (Cerezyme®) (Homo sapiens, UniProt P04062, R534H); test: GCase activity in human plasma at 37° C. (4-MUG); type: in vitro ADME; settings: human plasma, 0.5 μM GCase, no chaperone
T1 construct: purchased Genzyme Corp
T1 sequence (P04062 40-536 R534H): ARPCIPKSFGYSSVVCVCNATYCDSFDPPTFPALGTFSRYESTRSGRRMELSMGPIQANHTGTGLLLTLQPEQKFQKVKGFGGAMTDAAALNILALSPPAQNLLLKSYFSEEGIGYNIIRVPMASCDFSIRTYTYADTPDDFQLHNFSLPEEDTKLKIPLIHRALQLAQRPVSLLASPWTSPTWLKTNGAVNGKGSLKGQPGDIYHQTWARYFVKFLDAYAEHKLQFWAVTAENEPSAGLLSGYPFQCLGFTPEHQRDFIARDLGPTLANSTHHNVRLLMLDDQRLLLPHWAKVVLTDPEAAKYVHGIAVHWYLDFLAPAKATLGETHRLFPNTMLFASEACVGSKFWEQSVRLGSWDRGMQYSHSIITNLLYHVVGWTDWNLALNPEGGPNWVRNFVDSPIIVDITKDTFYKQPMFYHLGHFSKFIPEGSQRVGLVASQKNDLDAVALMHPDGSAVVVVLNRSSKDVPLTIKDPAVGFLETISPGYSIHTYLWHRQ
Protocol: FIG. 10 depicts the effects of IFG on recombinant human GCase (GCase; Cerezyme®, Genzyme Corp.) activity in human plasma at 37° C. GCase activity was evaluated to assess the ability of an ASSC to prolong the activity of GCase in human plasma over time. Cerezyme (0.5 μM) was incubated in human plasma with increasing concentrations of IFG (3 μM, 30 μM, or 100 μM) at 37° C. over 4 hours. Samples were assayed for GCase enzyme activity using 4-MU-β-glucose at 0.25, 0.5, 1, 2 and 4 hours and the residual GCase activity was expressed as % of initial activity.
The activity of GCase (0.5 μM; Cerazyme®) at 37° C. in human plasma was assessed for increasing concentrations of IFG (3 μM, 30 μM, and 100 μM) as a function time using the substrate 4-MUG.

[2] = target: T2, acid β-glucosidase (GCase; Cerezyme®) (Homo sapiens, UniProt P04062, R534H); test: SYPRO Orange thermal stability assay (heat denaturation) of GCase; type: binding; settings: pH 5.2 versus pH 7.4, no chaperone
T2 construct: purchased Genzyme Corp
T2 sequence (P04062 40-536 R534H): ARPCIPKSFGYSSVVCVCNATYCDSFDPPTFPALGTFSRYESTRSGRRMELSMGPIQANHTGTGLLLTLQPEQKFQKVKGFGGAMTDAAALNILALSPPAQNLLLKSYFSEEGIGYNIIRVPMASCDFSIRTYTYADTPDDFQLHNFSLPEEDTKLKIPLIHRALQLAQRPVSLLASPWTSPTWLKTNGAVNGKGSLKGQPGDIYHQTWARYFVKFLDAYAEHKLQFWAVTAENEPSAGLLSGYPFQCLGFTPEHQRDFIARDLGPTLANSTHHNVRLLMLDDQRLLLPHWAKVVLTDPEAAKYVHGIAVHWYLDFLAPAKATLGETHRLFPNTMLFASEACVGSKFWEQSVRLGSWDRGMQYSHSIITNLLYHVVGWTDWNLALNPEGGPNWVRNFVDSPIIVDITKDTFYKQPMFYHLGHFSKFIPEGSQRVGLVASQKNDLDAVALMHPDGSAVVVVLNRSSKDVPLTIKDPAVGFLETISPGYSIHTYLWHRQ
Protocol: FIG. 4 depicts the results of a thermal stability assay that utilizes heat to induce protein denaturation, which is monitored using a SYPRO Orange dye that fluoresces upon binding to hydrophobic amino acids (which are not exposed in a folded protein). Isofagomine increases acid β-glucosidase thermostability as evident by increases in melting temperature in a dose-dependent manner. The experiment was conducted at pH 7.4.
FIG. 8 depicts the stability of recombinant human GCase (Cerazyme®, Genzyme Corp.) at neutral pH (7.4) or acidic pH (5.2) in the presence or absence of 10 μM of IFG as determined in a thermal stability assay. The thermal stability assay utilizes heat to induce protein denaturation, which is monitored using a SYPRO Orange dye that fluoresces upon binding to hydrophobic amino acids (which are not exposed in a folded protein).
A thermal stability experiment as generally described in Example 1 was performed on three compositions of GCase (Cerezyme®):
A thermal stability experiment as generally described in Examples 1 and 4 was performed on three compositions of GCase (Cerezyme®):
Protein denaturation was monitored using SYPRO Orange dye which fluoresces when bound to exposed hydrophobic amino acids.

B1: GCase: recombinant human GCase (Cerezyme®, Genzyme Corp.) (protein, UniProt P04062 40-536, looked up)
Lysosomal acid …: ARPCIPKSFGYSSVVCVCNATYCDSFDPPTFPALGTFSRYESTRSGRRMELSMGPIQANHTGTGLLLTLQPEQKFQKVKGFGGAMTDAAALNILALSPPAQNLLLKSYFSEEGIGYNIIRVPMASCDFSIRTYTYADTPDDFQLHNFSLPEEDTKLKIPLIHRALQLAQRPVSLLASPWTSPTWLKTNGAVNGKGSLKGQPGDIYHQTWARYFVKFLDAYAEHKLQFWAVTAENEPSAGLLSGYPFQCLGFTPEHQRDFIARDLGPTLANSTHHNVRLLMLDDQRLLLPHWAKVVLTDPEAAKYVHGIAVHWYLDFLAPAKATLGETHRLFPNTMLFASEACVGSKFWEQSVRLGSWDRGMQYSHSIITNLLYHVVGWTDWNLALNPEGGPNWVRNFVDSPIIVDITKDTFYKQPMFYHLGHFSKFIPEGSQRVGLVASQKNDLDAVALMHPDGSAVVVVLNRSSKDVPLTIKDPAVGFLETISPGYSIHTYLWRRQ
modifications: imiglucerase
Time by which GCase is completely inactive [1]: ≤ 1 h
Time by which most GCase is inactivated [1]: ≤ 30 min
Stability of GCase at acidic versus neutral pH (thermal stability assay) [2]: more stable at acidic (lysosomal) pH than at neutral pH
